Test results published in paper doi:10.1101/2025.02.04.636395, “Identification of a RAB32-LRMDA-Commander membrane trafficking complex reveals the molecular mechanism of human oculocutaneous albinism type 7” (bioRxiv, 2025).

Biological target: T1, recombinant LRMDA (human, UniProt A0A087WWI0 1-226)
T1 construct: synthetic gene codon-optimised for S. frugiperda; also called tag-less LRMDA; purified LRMDA; source: Sf21 insect cells (baculovirus), purified (HaloLink resin, TEV cleavage); not shown: HaloTag, N-terminal, cleaved
T1 sequence (looked up): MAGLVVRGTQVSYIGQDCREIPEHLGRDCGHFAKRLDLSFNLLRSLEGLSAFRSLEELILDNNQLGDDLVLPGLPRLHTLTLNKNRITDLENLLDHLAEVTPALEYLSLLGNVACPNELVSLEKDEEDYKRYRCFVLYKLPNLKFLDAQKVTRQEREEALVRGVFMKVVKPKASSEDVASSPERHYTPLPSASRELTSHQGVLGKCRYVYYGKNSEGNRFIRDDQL
Experiment: pull-down; Retriever (0.5 µM, His-tagged VPS29) held on TALON resin; 1 µM LRMDA and/or 1 µM RAB32 added; 50 mM HEPES pH 7.2, 150 mM NaCl, 2 mM β-mercaptoethanol, 0.1% Triton X-100; 45 min at 4 °C; washes with 10 mM imidazole; LRMDA binding slightly increased in the presence of RAB32
Settings: both partners purified

B1: recombinant RAB32 (natural protein, human, UniProt Q13637 1-225, looked up)
chain: MAGGGAGDPGLGAAAAPAPETREHLFKVLVIGELGVGKTSIIKRYVHQLFSQHYRATIGVDFALKVLNWDSRTLVRLQLWDIAGQERFGNMTRVYYKEAVGAFVVFDISRSSTFEAVLKWKSDLDSKVHLPNGSPIPAVLLANKCDQNKDSSQSPSQVDQFCKEHGFAGWFETSAKDNINIEEAARFLVEKILVNHQSFPNEENDVDKIKLDQETLRAENKSQCC
notes: RAB32, human; synthetic gene codon-optimised for S. frugiperda; also called tag-less RAB32; purified RAB32; source: Sf21 insect cells (baculovirus), purified (Glutathione Sepharose, TEV cleavage); not shown: GST, N-terminal, cleaved
binding result: binds
